Experiment: label from the status in PepcDB records

Sequence | protein production
MSNHSRDEPSTAPKTDQWYDLVLGSSAKDDSSHKFCTLRYEFKPASIDKNRSGSMHKKKDNRVSVEFQNNQPGKPKVTFEGSSEDYKESDAVLFFDGEKFRLERLHRAVTQLRHVRTPGESAAASQSAVPVEHRLSPVGRAAKSPQVNRSLLPDVPVEVERIEIGKPENSAEPANTGNVPATSPVEDKNDDGDEHQEIDLVEIFGSFTPENDNAEKENADGGEYVESLNKQLSMTEEEIADVDDDSGGEGEKGLNAAEALRAQVNAEVQKSQTSSSSSSSGSSSGSDSDGRSKSVSSGSGSGGQSSSGSSSRGSGGSDDEDEVNSV | failed
MMDVNSSGRPDLYGHLRSFLLPEVGRGLPDLSPDGGADPVAGSWAPHLLSEVTASPAPTWDAPPDNASGCGEQINYGRVEKVVIGSILTLITLLTIAGNCLVVISVCFVKKLRQPSNYLIVSLALADLSVAVAVMPFVSVTDLIGGKWIFGHFFCNVFIAMDVMCCTASIMTLCVISIDRYLGITRPLTYPVRQNGKCMAKMILSVWLLSASITLPPLFGWAQNVNDDKVCLISQDFGYTIYSTAVAFYIPMSVMLFMYYQIYKAARKSAAKHKFPGFPRVEPDSVIALNGIVKLQKEVEECANLSRLLKHERKNISIFKREQKAATTLGIIVGAFTVCWLPFFLLSTARPFICGTSCSCIPLWVERTFLWLGYANSLINPFIYAFFNRDLRTTYRSLLQCQYRNINRKLSAAGMHEALKLAERPERPEFVLITRTSGVHQALENFPWGNEVNRWRKSCEYFCTDKMLTTVEKKVMIHD | failed
MKHYEVEILDAKTREKLCFLDKVEPHATIAEIKNLFTKTHPQWYPARQSLRLDPKGKSLKDEDVLQKLPVGTTATLYFRDL | not failed
MASSPRPTEQTKQFFQQWQTYQQLVDHNYMAHRQIHQAVGALIQQQFDRPFDFLDLGCGDAQAIAKTLTGSKINSYTGVDLSPNALALAQKNLDPFRQVELRETDFLTYLGEANQTAPASFDLIHVGFSLHHLLPEEKEQFFAHCFSLLRPGGCLVIYDVFRQPEQNRQQYIEAYLAKAESQWTALAPDQLQAIAAHIKECDFPELVATMAEIGQKVGFIPPQVLFTEPRGFHHCFAFAISQSGKALAQDGV | failed
MRRITVGPFNRVEGDLEVRLDIDDGVVVSAEVTAPLYRGFEQILEGRPSLDALTLAPRICGICSVSQSMAAVAALRAVDGLHPAPNGLHAANIAHAAENAADHLTHFYVFFMPDFARDSYAAWPWHPAVAERFTATRGTAAREVLPARARLLEIMGLIAGKWPHSLAFQPGGTTRAIGLGERVRLLSIIADFRGFLESIVFGDDLEAVLALRSAAALESWRDGRIGDFARFLAIADDLALDKLGRGATSLMSFGAYQGLEAPLFAAGLYDPATSTPRVLDIDAITEDVSHAWMRDTAAEPALAQTLPDADRPGGYSWCKAPRLDSRPIEVGALARQAVDGDALIRDLVRRHGPNVRTRVIARLLETARLALAMDRWARQIALDAPFLDAAARVGEGAGIGLVEAARGSLGHWIELSGDRIRRYQIIAPTTWNFSPRDADGVAGPLEQALVGTPVGAEGAASVAVQHVVRSFDPCMVCTAH | failed
MRDHPADRLQSITVTAFYQEPNVPTHSLSDYTSWIERTWQGQVSFTELVTYAETLNSHPALCAALYRTWLQRNTGVFNSVAWFNLGVILFAENNLIDSIEAFQKALALSPAFPQARINLGLALERQGNAEAAIEQWQAVVENAITPEADQNTGPNQADQIKNLTMALNNIGRLQETRRQYQAATQALEKSLQLDPDQPDAIHHLIFQRQKQCQWPVYAPVGKVTEAVLHEHTSALAMLNISDAPEAQLTAALNYSRRKIPADLPRLSPANGYRHDKIRVAYCSSDFCTHPVAMLTVELFEHHDKNRFETYAFCWSPDDGSTLRQRILSAVDHYIPVHGKSDDEVAQLIRQHEIDILIDLQGQTSGAKTRMLAMRPAPMQITYLGLPATTGLPGIDYVIADRYLIPEEYARFYSEKPLYMPDVYQVSDRKREHSPAPTRKDCGLPARKFVFCSFNNNHKYTLEVFTTWMNILRRVPNSVLWLLADNPWARENLQKQAKAQGIDPKRLVFAERTMPADYLARYLVADLFLDTFPFNAGTTANDALWMGLPVLTMSGRSFASRMAGALLTAADLPELITHDLQTYEDKAVALAADAKARKTMRQKLALAKESGPLFDSLRFTRNLEQQYIALVSELQNPSQHINISAQPEPTKLGEPAQPNPIIATVQEAEALQARGDTQGAIQLYRQWLEHAHSGDEWIAQFNLGVLLRDGGDITGAQQAFQAVLKQKPDFVQARAALGKLPAPVTTESQKHGAIIGPLQTNSPISTKSKEQITQIFSETPKIKLLVEGWRGINHSFALVNQYHLYEWMRSSQLHIYHRDMPLLFSHWETNKNRGNTGLPGTYSQRLAQVQHWSGQTYDACFRIYSPVTLAPDDKHPVSTFLVTELGLDETQIAHFRPNLKAYFNMGGNIVTPSHWSKERIIEAGIPAEHIHLISHGVASNIFHPMHSDERAIHRQRLGFDREAVIFLNVAAPIWNKGLDLLIQAFVQCFHQNPHTRLLIKDQQAVYGISTKDTVLREITLLGESKNESLLNAIRVIPDLNLLQLRELYCIADYYVSPYRAEGFNLPVIEALVCGTPVIVTEGGATQDFCSEKNALFIEAVPYRNVKINDRHVNAYQAPILDSLITHLNVCAQDKPFSESQRLQNAASIAKNFTWAKAADTISRLFTQSNDCNTSTSQITGALHEEPQYCN | failed
MVDQSAVGRRFTPVTAHVEAGRLRYFLDTLGETNPVYRDAAAAKVEGFAAPPVPPTYLFCLEMLDNERPFEFLTALEIDLGRVLHGEQSFTYHAPVMVGDTLTFSPQVTSVTDKKGGAMTLIGVATAVTNQHGVHVADTTRTIVVRNGLEHHHHHH | not failed
MHKVVIVGRPNVGKSSLFNRLLKKRSAVVADVPGVTRDLKEGVVETDRGRFLLVDTGGLWSGDKWEKKIQEKVDRALEDAEVVLFAVDGRAELTQADYEVAEYLRRKGKPVILVATKVDDPKHELYLGPLYGLGFGDPIPTSSEHARGLEELLEAIWERLPVRQIETEPEVAGIRLAIVGRPNAGKSSLLNAILGEERVIVSEEPGTTRDAIDVEFFFGGQRFVLVDTAGIRKRPENLVEELAIRRSLRAMDEADVVLLVVDPFQVGDRELKLANEALDRGKPVLLVITKWDLVDKEDAPKMRRLLREKLAHLDHLPRVFTSALTRQNLDRIFREAVRLHELNQTRVPTAELNRWVAVWTSRVQMPNFKGKPLKILYATQPEVAPPTFVFFVNHPEFVTRAFENYLKNRIGEDLGLREVPFRLVFRGRREE | not failed
MALRVTFVAAARSSPLLAERFDDERPLDQAGWNEALRAAGDLLPLAAAELRYCSPTPRSRATGDAIGCAPLSQLALRACDMGRWRGLTLGEAMAREPAAVDAWLADPRSAPHGGESLLGFITRVGGWLDTRPGEDGDRIVAVAEPSVIRAALVYALKAPPGTYWNLDVRPLSTTTVTGRAGRWSLRFEGTPDQGATRPAFRGGNPL | failed
MTKETDDDDNDIPIQEDDEEKNPDQDYQELLDGLLNLSGRQLLMFYWDHELTEAVREGFEVISQKWMKGIDQMWVHWNTSRATVRSESASQFRNSDRGGLGPHRNISSQKSFVQVHEELEELYGRHVSLGEVFMKTHTRADGSFVDAKAEKVAEVYKKACEEKLTEIDDDGPKTSMNSSELSTHRDLNIDDKNEIFLQSAS | failed
MQDLIKQYNTTLRQLREAQKDAKEEDVKVLTDMISDITYSLEWMKKARRPGNRRGVERLAAYQRERACDPLLMQRYFRSMDDNLYEWDNHQQEHSIGEWDKVRLEDALSLLTEREKEVYLMSRGYCLTYREIARYLDITCSTVQSMIERAEKKIARQVNESLFCNCG | failed
HPQYIVFCDFDETYFPHTIDEQKQQDIYELEDYLEQKSKDGELIIGWVTGSSIESILDKMGRGKFRYFPHFIASDLGTEITYFSEHNFGQQDNKWNSRINEGFSKEKVEKLVKQLHENHNILLNPQTQLGKSRYKHNFYYQEQDEINDKKNLLAIEKICEEYGVSVNINRCNPLAGDPEDSYDVDFIPIGTGKNEIVTFMLEKYNLNTERAIAFGDSGNDVRMLQTVGNGYLLKNATQEAKNLHNLITDSEYSKGITNTLKKLIGFMRR | failed
MKPDDLPSDVSSDPLLRLRRQISDEASQCVACGLCVPHCPSYRVTLSEADSPRGRIALMSGVAAGRIPMNARFALHMDRCLTCRACEAVCPNHVRFGELIDDAREMISSPPLEFGGNNPGARVSSFRKWVERELIARPSRIDALRPLLRFYQRSGLQKWVRKSGLLGKTKLALLEAQIPFIDQPRSSSWSVVYPAVGKPRGEVGLFLGCVARVADATTLDAALFVLNQLGYVVHVPTGQTCCGALHQHRGDMDAAAQLERQNVEAFAGLDLGAIITTASGCGAQLSEYSSFSGSQRTTRAPAVSSQAGGETTRRSPPKVLDISEFLAEAEGWEDARFQPLPHKILVHEPCTLRNVLRASTYAYKLLERIPQAQVVPLAGNDQCCGAAGTYFLDQPEISAALLEDKVTALKAGQACYLATSNVGCALHIAAGLRRPGLGIEVIHPVTLIARQMGMQSQSLK | failed
SIAILVIMHGESTASSMVNVANTLLDCNHAVAINMGLEDRVQDILVQAVEIANKIDKGKGILILTDMGSILTFAKVIRDATGKEVKAIDMVSTPIVIEATRKALTPEMTLEKLYFNIIESIKKHYGDMEVTYAEK | failed
MEKFQENNILEDKKVCINENEEAWNKETYNAWIKRFGTAKEAAEKIKSMPEKKLNVLLDKFGDVKGKKIFNLMGSNGNKAVALALLGADVTVVDFSEGNRRYALDLAEACGVKINFILSDVLRMPKEVMSGDYDIVFAEMGILHYFSDLSPFMNVIHSLLKDGGKAVLRDFHPVSTKLITSRGSTAKVRKHKVTGDYFDTSLEEKEVAYSKYLEEGEVEKVFLRKWNLGEIVTAVANTGLKIESLTEEPNLSSDVFDKGIPKTFTIVARK | failed
MISSLKLTEMCTHCGFCLETCPTYVVTRNEVHSPRGRIEAVRIGINSTGFETCMYCRLCETACPAGVKYAQIITPVRKSSLKKTVMEKMLENPKLLAKSLKLLSKANSYPEVQRFVKFVKPNEVSEPLETDGEGDIILFPGCIESVIFRKTVEKAYKYLGKKYKVKIINGCCGLAHISNGNYEGAKKLAIRLAEKVKGKKVITLQSNCAAFMKEYKEWFGIEINAYDFAEFLIKEGIELPKVNDTFTVHYPCHAYRQKLVSHIRNVAEKMGIKIREMEDPHFECGAGGDYWLSHPKLSDMVMNVKRGKIAKSEAKKVIVTNSVCALAIRSMGYDVYHIADLLDT | failed
MKKKMITTIIAMLVIVVMLLPTKLGPVIDKYNPFYKTKEYYTVVNTIGQHVGDEWYEYEFIAFDERGKEQKIKKTVKHMLKRDEMLKVYAKGRYGESIEEIEAVNIPINAKSKLLSMRLEHHHHHH | not failed
MPKLNLTSIDVLLSDDSDRRQLACKSNHSTVSSLPAMDSRESITSTSPEVAILLCTYHGQRYLPEQLASFEVQSHSNWKVWASDDGSEDGTHAILDAYSRKWPEGRLSICSGPSEGFAANFISLTCKDSIQADFYAYSDQDDIWNVNKLARAVQWLETVPVNIPALYCSRTRLVDSDDNEIGISPLFVRPPSFANALMQNIGGGNTMVFNNAARELFCEAGENTLVVAHDWWAYIAVTGCGGQVFYDREPTLRYRQHNGNLIGTNSNWSARFKRIHMLFQGEFRRWSDINIAALGALEHKLTPENREILQRFASGRKMSLIPRLIQFKRAGIYRQTLFSNFGLVVAAIFGKV | failed
MSLKYFKRLSDRERAIFEAGITLGAIYHQFCGTPVSPGTAEEVAKCIERAALLQPCVIDARVEVDVSSEDTDNYGGYTEVSGRNLRVTIVTRCGEWEAVGKLEFIEELNYPLMWVEEIRRVEQEGHHHHHH | not failed
MASWPYCNHKRGLNGYGVFFSIFFGSGAYNAPVRIAVLADIHGNADALRAVLKDAAEQGAERLIVNGDVVNRGPDSVQVMEELLARDDTSFVLGNHDDLLRLWHTRSDKLPQDWYDDPFWGATAWSTEQLHAAGLLDVPGDWPLTARLSVPGLPDVLLAHGTPDDYRRGLSERTDPALVRRIADESGAGVLVGSHIHRQADALVGGVRVLNTGAVGSPADGDPRAQYLLLTATPQGWQTELRRVPYDRSGVLQRFETSGLLDTGLSARIFRDELVTARSLYTPYWEWTETGGCPRDTASWEQFAQDWT | failed
